Assay results as given in paper PMC9000616 (Molecules, 2022).

B1: Arabidopsis thaliana DAD1-like seedling establishment-related lipase (enzyme, UniProt O49523 1-419, looked up)
chain: MKRKKKEEEEEKLIVTREFAKRWRDLSGQNHWKGMLQPLDQDLREYIIHYGEMAQAGYDTFNINTESQFAGASIYSRKDFFAKVGLEIAHPYTKYKVTKFIYATSDIHVPESFLLFPISREGWSKESNWMGYVAVTDDQGTALLGRRDIVVSWRGSVQPLEWVEDFEFGLVNAIKIFGERNDQVQIHQGWYSIYMSQDERSPFTKTNARDQVLREVGRLLEKYKDEEVSITICGHSLGAALATLSATDIVANGYNRPKSRPDKSCPVTAFVFASPRVGDSDFRKLFSGLEDIRVLRTRNLPDVIPIYPPIGYSEVGDEFPIDTRKSPYMKSPGNLATFHCLEGYLHGVAGTQGTNKADLFRLDVERAIGLVNKSVDGLKDECMVPGKWRVLKNKGMAQQDDGSWELVDHEIDDNEDLDF
notes: AtDSEL, phospholipase A1 of Arabidopsis thaliana, full length, UniProt O49523; A non-native Gly from the TEV site (ENLYFQG) is left at the N-terminus after cleavage; Homodimer by crystal structure and AUC; also called AtDSEL; source: E. coli BL21 (DE3), purified (Ni-NTA, TEV cleavage, Ni-NTA, SEC); not shown: His6, N-terminal, cleaved
B2: Capsicum annuum phospholipase A1 homolog (enzyme, UniProt A5YW95 1-397, looked up)
chain: MGSMAEKWEELSGKNNWEGLLNPLDLDLRKYIIQYGELAQATYDTFISERASKYAGASRYSMENFFTKVGLDPSKYHVTKFFYGTSSIPLPDAFMTRSLSREAWSKESNFMGYIAVATDEGKVALGRRDIVINWRGTLQVLEWVNDLQFLLVPAPKVFGDGGLLPLFHPLVHHGFHNIYTTENPRSQFNKTCVRDQVMEEVKRLVEEYKNEEVSITVTGHSLGASLATLNAVDIAFNGINKSSNGKEFPVTAFVFASPKVGDLNFHKAFSKLKHLHILRIHNLLDIVPKYPPVGYFDVGQELMIDTTKSPYVKPPGEVVSWHLLEPYLHGIAGTQGIGMTAGFKLEVNRDISLVNKQWMILKDEYCIPPLWWSEKHKGMVQQQDGSWLLQDRDDYEF
notes: CaPLA1, phospholipase A1 of hot pepper (Capsicum annuum), full length, UniProt A5YW95; A non-native Gly from the TEV site (ENLYFQG) is left at the N-terminus after cleavage; Homodimer by crystal structure and AUC; also called CaPLA1; source: E. coli BL21 (DE3), purified (Ni-NTA, TEV cleavage, Ni-NTA, SEC); not shown: His6, N-terminal, cleaved

Target: the molecule itself
Experiment: AUC; sedimentation velocity, 20 °C, Rayleigh interference optics, c(s) analysis converted into c(M); AtDSEL at 3.0, 1.5 and 0.8 mg/mL; CaPLA1 at 1.1, 0.5 and 0.3 mg/mL

Protein | stoichiometry N
B1 | 2
B2 | 2
